{"source": "patent WO2013190679A1", "about": "(dated 2013)", "key": {"[1]": {"molecular_target": "T1, recombinant human LOX-1 protein (61-273aa) (human, UniProt P78380 61-273)", "assay": "ELISA, LOX-1 (61-273aa) immobilised, HRP anti-mouse IgG"}, "[2]": {"molecular_target": "T2, BSA (negative control, Sigma) (UniProt P02769 25-607)", "T2 sequence (P02769 25-607 limits assumed)": "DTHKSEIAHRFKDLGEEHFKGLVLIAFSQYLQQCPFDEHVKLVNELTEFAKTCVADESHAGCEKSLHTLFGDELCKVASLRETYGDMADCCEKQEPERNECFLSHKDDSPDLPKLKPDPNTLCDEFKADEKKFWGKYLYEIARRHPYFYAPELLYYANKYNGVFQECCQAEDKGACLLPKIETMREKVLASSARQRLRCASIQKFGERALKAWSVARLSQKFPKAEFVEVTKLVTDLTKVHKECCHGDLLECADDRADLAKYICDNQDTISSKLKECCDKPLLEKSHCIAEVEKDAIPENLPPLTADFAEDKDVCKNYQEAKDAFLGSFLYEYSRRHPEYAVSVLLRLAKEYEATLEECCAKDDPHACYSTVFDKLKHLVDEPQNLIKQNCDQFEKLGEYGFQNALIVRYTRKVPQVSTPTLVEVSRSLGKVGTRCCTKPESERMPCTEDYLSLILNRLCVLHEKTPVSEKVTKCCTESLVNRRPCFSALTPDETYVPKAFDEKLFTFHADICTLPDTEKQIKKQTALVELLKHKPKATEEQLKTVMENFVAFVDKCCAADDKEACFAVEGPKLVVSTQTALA", "assay": "ELISA, BSA immobilised, HRP anti-mouse IgG"}, "[3]": {"molecular_target": "T2, BSA (negative control, Sigma)", "assay": "ELISA, BSA immobilised, HRP anti-V5 tag"}, "[4]": {"molecular_target": "T1, recombinant human LOX-1 protein …", "assay": "ELISA on immobilised LOX-1; protein concentration at the inflection point of a 4-parameter logistic fit"}}}
{"binder": "mouse anti-LOX-1 monoclonal antibody #10-1 (antibody, V domains shown, Whole mouse IgG1, kappa from the hybridoma; also called anti-LOX-1 antibody #10-1; IgG type of mouse anti-LOX-1 antibody #10-1) VH: EVKLLESGGGLVQPGGSLKLSCAVSGFDFSRYWMSWVRQAPGKGLEWIGEINPDSSTINFTPSLKDKFIVSRDNAKNTLYLQMSKVRSEDTALYYCARNDVLLGAMDYWGQGTSVTVSS VL: DVLMTQTPLSLPVSLGDQASISCRSSQTIVHSNGKTYLEWYLQKPGQSPKLLIYKVSNRFSGVPDRFSGSGSGTDFTLKISRVEAEDLGVYYCFQGSHVPLTFGAGTKLELK", "values": [{"measurement": "binding result", "setting": "[1]", "result": "binds"}, {"measurement": "binding result", "setting": "[2]", "result": "no binding"}]}
{"binder": "Fv-type anti-LOX-1 antibody (scFv, The VH gene was amplified with the #10-1 heavy chain secretion signal; Expressed in FreeStyle 293 and purified by the His tag; also called Fv type antibody; Fv-type antibody; not shown: C-terminal V5 and 6xHis tag from the pEF6/V5/His vector) scFv: EVKLLESGGGLVQPGGSLKLSCAVSGFDFSRYWMSWVRQAPGKGLEWIGEINPDSSTINFTPSLKDKFIVSRDNAKNTLYLQMSKVRSEDTALYYCARNDVLLGAMDYWGQGTSVTVSSGGGGSGGGGSGGGGSDVLMTQTPLSLPVSLGDQASISCRSSQTIVHSNGKTYLEWYLQKPGQSPKLLIYKVSNRFSGVPDRFSGSGSGTDFTLKISRVEAEDLGVYYCFQGSHVPLTFGAGTKLELK", "values": [{"measurement": "binding result", "setting": "[3]", "result": "no binding"}, {"measurement": "EC50", "setting": "[4]", "result": 2.91, "unit": "µg/mL"}]}
